According to patent publication US20240409645A1 (published 2024):
Numbering of substitutions follows the chain as printed.

T1: human IL-2 receptor IL-2Rα/IL-2Rβ/γc on HEK-Blue IL-2 cells (UniProt P01589 22-272; P14784 27-551; P31785 23-369)
T1 chain 1: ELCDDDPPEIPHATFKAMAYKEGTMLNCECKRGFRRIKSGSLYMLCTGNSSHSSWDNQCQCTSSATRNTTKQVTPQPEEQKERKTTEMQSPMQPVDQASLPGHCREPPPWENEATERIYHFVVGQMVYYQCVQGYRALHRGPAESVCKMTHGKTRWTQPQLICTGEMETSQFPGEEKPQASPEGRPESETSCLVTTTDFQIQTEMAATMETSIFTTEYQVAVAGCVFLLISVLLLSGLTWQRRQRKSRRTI
T1 chain 2: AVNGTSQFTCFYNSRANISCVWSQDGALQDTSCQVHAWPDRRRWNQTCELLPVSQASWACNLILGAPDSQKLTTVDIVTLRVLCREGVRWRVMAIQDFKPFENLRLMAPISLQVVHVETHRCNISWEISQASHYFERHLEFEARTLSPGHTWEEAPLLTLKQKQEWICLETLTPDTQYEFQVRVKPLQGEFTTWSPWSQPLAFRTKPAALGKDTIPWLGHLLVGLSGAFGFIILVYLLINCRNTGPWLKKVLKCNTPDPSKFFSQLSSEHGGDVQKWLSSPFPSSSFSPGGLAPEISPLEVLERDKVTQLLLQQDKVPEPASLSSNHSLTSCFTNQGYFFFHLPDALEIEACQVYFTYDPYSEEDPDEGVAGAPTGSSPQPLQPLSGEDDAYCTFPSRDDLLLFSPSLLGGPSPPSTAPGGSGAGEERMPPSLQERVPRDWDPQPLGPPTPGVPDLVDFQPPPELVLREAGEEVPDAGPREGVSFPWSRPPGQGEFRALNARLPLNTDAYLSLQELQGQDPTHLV
T1 chain 3: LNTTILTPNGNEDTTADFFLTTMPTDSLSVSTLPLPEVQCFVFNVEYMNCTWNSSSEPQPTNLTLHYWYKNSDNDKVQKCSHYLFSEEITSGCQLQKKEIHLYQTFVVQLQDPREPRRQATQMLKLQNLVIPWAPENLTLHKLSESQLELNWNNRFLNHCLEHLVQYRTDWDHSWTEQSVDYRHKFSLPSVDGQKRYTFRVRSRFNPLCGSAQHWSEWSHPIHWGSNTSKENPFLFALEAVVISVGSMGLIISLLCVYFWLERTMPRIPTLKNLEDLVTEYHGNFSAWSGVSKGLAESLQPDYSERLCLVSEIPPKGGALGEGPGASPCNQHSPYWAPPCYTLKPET

B1: BsVHH-8 (32x18) (antibody)
chain: QVQLVESGGGLVQAGGSLRLSCAASGRTFGSTAVGWFRQVPGKEREFVSAINRSGSATTYADSVKGRFTISRDNAKNTVYLQMNSLTPEDTGVYYCAADSLPYGRPYYFQRSAGEYDYWGQGTQVTVSSGGGGSGGGGSGGGGSGSQVQLVESGGGLVQPGGSLRLSCAISGGTLDSYGIGWVRQAPGKQREGVSCMSRSDDRTYYADSVKGRFTISKDSAKNTVYLQMTSLKPEDTAVYYCAAVDAYGCSLVQPTTYDFWGLGTQVTVSSGGGGSGGGGSGGGGSTVSSDKTHTCPPCPAPEAAGGPSVFLFPPKPKDTLMISRTPEVTCVVVDVSHEDPEVKFNWYVDGVEVHNAKTKPREEQYNSTYRVVSVLTVLHQDWLNGKEYKCKVSNKALGAPIEKTISKAKGQPREPQVYTLPPSRDELTKNQVSLTCLVKGFYPSDIAVEWESNGQPENNYKTTPPVLDSDGSFLLYSKLTVDKSRWQQGNVFSCSVMHEALHNHYTQKSLSLSPGK
B2: BsVHH-20 (36x22) (antibody)
chain: QVQLVESGGGLVQAGGSLRLSCAASGRTLSRYAMGWFRQAPGSEREFVAASSWGGDTFYADSVEGRFTFSRDNAKNAVYLQMNSLQPEDTAAYYCAAAPTSFPTTAYSSSNSYAYWGQGTQVTVSSGGGGSGGGGSGGGGSGSEVQLVESGGGLVQAGGSLRLSCAASGSIFSINAMAWFRQVPGMERELVAAISRDGGASVYRDSVKGRFTISRDNSKNTVYLQMNTLKPEDTAIYVCAATRAIGWTARWITTDFDFWGQGTQVTVSSGGGGSGGGGSGGGGSTVSSDKTHTCPPCPAPEAAGGPSVFLFPPKPKDTLMISRTPEVTCVVVDVSHEDPEVKFNWYVDGVEVHNAKTKPREEQYNSTYRVVSVLTVLHQDWLNGKEYKCKVSNKALGAPIEKTISKAKGQPREPQVYTLPPSRDELTKNQVSLTCLVKGFYPSDIAVEWESNGQPENNYKTTPPVLDSDGSFLLYSKLTVDKSRWQQGNVFSCSVMHEALHNHYTQKSLSLSPGK
B3: BsVHH-7 (31x18) (antibody)
chain: QVQLVESGGGLVQAGGSLRLSCTGYGGAFTGYALGWFRQAPGKEREFVARINWSGSFTYYASSVKGRFTISRDNAKNTMYLQMNNLKPEDTAVYYCAADNPSTLATDYDNWGQGTQVTVSSGGGGSGGGGSGGGGSGSQVQLVESGGGLVQPGGSLRLSCAISGGTLDSYGIGWVRQAPGKQREGVSCMSRSDDRTYYADSVKGRFTISKDSAKNTVYLQMTSLKPEDTAVYYCAAVDAYGCSLVQPTTYDFWGLGTQVTVSSGGGGSGGGGSGGGGSTVSSDKTHTCPPCPAPEAAGGPSVFLFPPKPKDTLMISRTPEVTCVVVDVSHEDPEVKFNWYVDGVEVHNAKTKPREEQYNSTYRVVSVLTVLHQDWLNGKEYKCKVSNKALGAPIEKTISKAKGQPREPQVYTLPPSRDELTKNQVSLTCLVKGFYPSDIAVEWESNGQPENNYKTTPPVLDSDGSFLLYSKLTVDKSRWQQGNVFSCSVMHEALHNHYTQKSLSLSPGK
B4: BsVHH-15 (36x19) (antibody)
chain: QVQLVESGGGLVQAGGSLRLSCAASGRTLSRYAMGWFRQAPGSEREFVAASSWGGDTFYADSVEGRFTFSRDNAKNAVYLQMNSLQPEDTAAYYCAAAPTSFPTTAYSSSNSYAYWGQGTQVTVSSGGGGSGGGGSGGGGSGSEVQLVESGGGLVQTGGSLRLSCAASGGTFSRDAMAWFRQVPGKEREFVALISWSGATTNYADSVKGRFAISRDNGKNTVYLQMNRLKPADTAIYYCAADRRPMGSRSYFEPTEYDDWGQGTQVTVSSGGGGSGGGGSGGGGSTVSSDKTHTCPPCPAPEAAGGPSVFLFPPKPKDTLMISRTPEVTCVVVDVSHEDPEVKFNWYVDGVEVHNAKTKPREEQYNSTYRVVSVLTVLHQDWLNGKEYKCKVSNKALGAPIEKTISKAKGQPREPQVYTLPPSRDELTKNQVSLTCLVKGFYPSDIAVEWESNGQPENNYKTTPPVLDSDGSFLLYSKLTVDKSRWQQGNVFSCSVMHEALHNHYTQKSLSLSPGK
B5: BsVHH-9 (35x18) (antibody)
chain: QVQLQESGGGLVQGGGSLRLSCAASGGIFSSYAMGWFRQAPGKEREFVAAISRSGRSTNYADSVKGRFTISRDNAKSTVYLQMNSLKPEETAVYYCAAGRYYNSAYDPSPGDFGSWGHGTQVTVSSGGGGSGGGGSGGGGSGSQVQLVESGGGLVQPGGSLRLSCAISGGTLDSYGIGWVRQAPGKQREGVSCMSRSDDRTYYADSVKGRFTISKDSAKNTVYLQMTSLKPEDTAVYYCAAVDAYGCSLVQPTTYDFWGLGTQVTVSSGGGGSGGGGSGGGGSTVSSDKTHTCPPCPAPEAAGGPSVFLFPPKPKDTLMISRTPEVTCVVVDVSHEDPEVKFNWYVDGVEVHNAKTKPREEQYNSTYRVVSVLTVLHQDWLNGKEYKCKVSNKALGAPIEKTISKAKGQPREPQVYTLPPSRDELTKNQVSLTCLVKGFYPSDIAVEWESNGQPENNYKTTPPVLDSDGSFLLYSKLTVDKSRWQQGNVFSCSVMHEALHNHYTQKSLSLSPGK
B6: 3-MP01E03 VHH-hFc, monospecific monovalent (Fc fusion)
VHH: QVQLVESGGGLVQAGGSLRLSCTASGRTLSSYSMAWFRQAADKGREFVTAISSSGVVTHVLDSVKGRFTISRDNAKNTVYLQMNSLQPEDTALYFCAGTASSYSTYEANYNYWGQGTLVTVSS
B7: 12-MP05B12 VHH-hFc, monospecific monovalent (Fc fusion)
VHH: QVQLVESGGGLVQAGGSLRLSCAASGFTFDGYAIGWFRQAPGKEREGVSYITGSDGSTYYADSVKGRFTISSNNAKNTVYLHMNSLKPDDAAVYYCAIDRLGSRGAYVPIWWRSSDMDLWGKGTLVTVSS
B8: 5-MP01F05 VHH-hFc, monospecific monovalent (Fc fusion)
VHH: EVQLVESGGGLVQAGGSLRLSCAASIRAFTTWSMAWFRQAPGKEREYVARINVSGSVTYYADFVKGRFTISRDNAKKTMYLEMNNLKPEDTALYYCAADRTGVGTNDYNYWGQGTQVTVSS
B9: 6-MP01G05 VHH-hFc, monospecific monovalent (Fc fusion)
VHH: QVQLQESGGGLVQAGGSLRLSCAASGRTFSSYAMGWFRQAPGKEREFVAVISWNVDNTEYTDSVKGRFTISRDNDKNMVYLQMNSLKPEDTAVYYCAADSIPLSSDMSPTATEYGYWGQGTQVTVSS
B10: 9-MP05G01 VHH-hFc, monospecific monovalent (Fc fusion)
VHH: EVQLVESGGGLVQAGGSLRLSCAASGGSIYTYNMGWFRQAPGKEREFVAGTLWSGGDSVYADFAKGRFTLSRENAKNTLYLQMNSLKPEDTATYYCAIDPLSLTSDWRVDELSSWGKGTLVTVSS
B11: 7-MP01G08 VHH-hFc, monospecific monovalent (Fc fusion)
VHH: EVQLVESGGGLVQAGGSLRLSCAASGRAFSMYNMGWFRQAPGKEREFVAATGWSGANTPYADSVKGRFTISRDNTQNTVYLQMNSLKPEDTATYYCAADSIRLRSDVTRIPLEYDYWGQGTQVTVSS
B12: 11-MP05H04 VHH-hFc, monospecific monovalent (Fc fusion)
VHH: QLQLVESGGGLVQAGGSLRLSCAASGLTFEGYAIGWFRQAPGKEREGVSYITGSDGTTYYINSVKGRFTISSDNAKSTVYLQMNTLKPEDTAVYYCAVDRLGSQGRYASAWWRSGDMDLWGKGTQVTVSS
B13: 1-MP01H01 VHH-hFc, monospecific monovalent (Fc fusion)
VHH: EVQLVESGGGLVQAGGSLRLSCAASGRTFRTHNMGWFRRAPGKEREFVAAISWNVDNTLYADSVKGRFTISRDNGRNMVYLQMNSLKPEDTAVYYCAADNIPLSSDVAATATEYDYWGQGTQVTVSS
B14: 4-MP01F04 VHH-hFc, monospecific monovalent (Fc fusion)
VHH: B13 VHH with E1Q, R27G, H32R, I51V, T58K, V107M, A108R, A109P
B15: 10-MP05F03 VHH-hFc, monospecific monovalent (Fc fusion)
VHH: QVQLVESGGGLVQAGGSLRLSCAASGIPFDNYAMGWFRQAPGKEREFVAARDLEGIITRYGDSVKGRFTISRGNAKNTVFLQMNSLKPEDTAVYYCAARDGGVVAGSRSSAQYNYWGQGTQVTVSS
B16: 8-MP01C12 VHH-hFc, monospecific monovalent (Fc fusion)
VHH: QVQLVESGGGLVQPGGSLRLSCATSGFTFSNNFMSWVRQAPGKGLEFVSTISYGGESTTYAEAVKGRFTISRDNAKNTLYLQMNNLKPEDTAIYYCAKATSYTSIRGAPRGQGTQVTVSS
B17: 13-MP05E12 (antibody, V domains shown)
VH: QVQLQESGGGLVQAGDSLRLSCAASGFNFGWHAMGWFRQAPGKEREFVATITWTGRDTYYADSVRGRFTISKDNAKDTLFLQMNSLRPDDTGVYYCAKARERATWAYSEDDCDYWGQGTQVTVSS

Target: T1, human IL-2 receptor IL-2Rα/IL-2Rβ/γc on …
Assay: FACS cell binding; avid

| EC50 [nM] | Binder |
| --- | --- |
| 1.9 | B1 |
| 3.4 | B2 |
| 23.5 | B3 |
| 88.3 | B4 |
| 1.3 | B5 |

Target: T1, human IL-2 receptor IL-2Rα/IL-2Rβ/γc on …
Assay: FACS cell binding; monovalent

| EC50 [nM] | Binder |
| --- | --- |
| 3.3 | B6 |
| 8.5 | B7 |
| 9.2 | B8 |
| 5.6 | B9 |
| 2.3 | B10 |
| 4.7 | B11 |
| 5.9 | B12 |
| 135 | B13 |
| 2.2 | B14 |
| 2 | B15 |
| 2.7 | B16 |
| 3.2 | B17 |
